This note sets out measurements from paper PMC13038408.

This experiment addresses RSV90 IgG (human). Kind of experiment: SPR. For orientation: In SPR one partner is held on a chip, and binding of the other changes the refractive index at the surface.

Sequence of RSV90 IgG (human) (heavy, as listed by the source, chain 1 of 2): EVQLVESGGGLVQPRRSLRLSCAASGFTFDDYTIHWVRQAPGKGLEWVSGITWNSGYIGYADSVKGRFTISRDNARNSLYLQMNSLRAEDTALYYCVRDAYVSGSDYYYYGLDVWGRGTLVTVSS
Sequence of RSV90 IgG (human) (light, as listed by the source, chain 2 of 2): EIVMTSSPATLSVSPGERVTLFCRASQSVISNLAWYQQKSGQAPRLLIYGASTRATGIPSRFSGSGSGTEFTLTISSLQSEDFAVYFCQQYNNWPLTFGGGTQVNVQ

B1: RSVF-multi-3 (designed binder)
chain: DDLVDIFLRAFAKAAKVTRFDKNRGIIKTFSEEETEKLFKSLTEEEVEKIESALKSTNKAVVVLGDGDIEIEIDLDKLYALINDLDISNDQKKEMSNNFFEYLRKIAKK
Consider B1, for which the Kd – broadly, the concentration at which binding is half-saturated – was greater than 10 µM.

B2: RSVF-multi-4 (designed binder)
chain: MKLVIARVKSPKVKRLSEEDIEKIKSALKSTNKAVVTIKDENGEEIEVEVRLLTLEEALKYINDLPISNDAKKLMSNNIHKALEPGRTVVFGPEGCEERDKNRGIIKTFSTDVKLDETYFFFRVE
In the case of B2, the Kd is greater than 10 µM.
